Here are results for 1 molecule from publication doi:10.1101/2021.07.23.453469 (bioRxiv, 2021).

The target in the assay is T1, outer-capsid protein σ3 on T3SA- virions (reovirus strain T1L, UniProt P07939 1-365).
T1 sequence (looked up): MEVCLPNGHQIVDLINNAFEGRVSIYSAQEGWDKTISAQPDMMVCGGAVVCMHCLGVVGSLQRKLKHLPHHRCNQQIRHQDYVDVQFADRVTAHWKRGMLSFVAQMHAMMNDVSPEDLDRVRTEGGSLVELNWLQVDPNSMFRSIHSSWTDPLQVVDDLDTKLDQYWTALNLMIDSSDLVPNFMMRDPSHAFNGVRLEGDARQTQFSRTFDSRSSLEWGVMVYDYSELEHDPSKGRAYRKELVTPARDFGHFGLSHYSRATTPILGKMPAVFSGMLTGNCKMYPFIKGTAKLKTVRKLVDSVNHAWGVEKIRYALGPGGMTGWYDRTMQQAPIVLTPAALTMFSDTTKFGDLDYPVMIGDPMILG
The experiment in a line: cryo-EM structure.

B1: NgR1-His (domain or fragment, human, UniProt Q9BZR6 27-310, looked up)
chain: CPGACVCYNEPKVTTSCPQQGLQAVPVGIPAASQRIFLHGNRISHVPAASFRACRNLTILWLHSNVLARIDAAAFTGLALLEQLDLSDNAQLRSVDPATFHGLGRLHTLHLDRCGLQELGPGLFRGLAALQYLYLQDNALQALPDDTFRDLGNLTHLFLHGNRISSVPERAFRGLHSLDRLLLHQNRVAHVHPHAFRDLGRLMTLYLFANNLSALPTEALAPLRALQYLRLNDNPWVCDCRARPLWAWLQKFRGSSSEVPCSLPQRLAGRDLKRLAANDLQGCA
For B1, the binding result is “binds”.
